Key:
Assay in all cases: fluorescence polarisation
[1] = biological target: bivalent ExoS L423A peptide, fluorescently labeled (Pseudomonas aeruginosa) (UniProt Q51451)
[2] = biological target: monovalent ExoS L423A peptide, fluorescently labeled (Pseudomonas aeruginosa) (UniProt Q51451)
[3] = biological target: bivalent wild-type ExoS peptide, fluorescently labeled (Pseudomonas aeruginosa)

“tobacco 14-3-3 homodimer T14-3-3cΔC (domain or fragment)” showed a Kd [1] of 5.9 µM, a Kd [2] of 127 µM and a Kd [3] of 0.0455 µM.
